“Also recorded” adds a separate entry of the source.
Tests used:
FZD6-TM4 = target: T1, FZD6-TM4 (Homo sapiens, UniProt O60353); assay: isothermal titration calorimetry of TM peptides; format: binding; conditions: 820 µM TM5 or TM5 mut into 165 µM TM4; 0.5% DDM; 20 °C; one set of sites
T1 construct: purchased Pepscan Therapeutics (Lelystad, Netherlands); host or cells: chemical synthesis (Fmoc solid phase)
T1 sequence (O60353 with tags, fused parts or gaps limits assumed): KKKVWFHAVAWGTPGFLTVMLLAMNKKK
Experimental: (§1) CD spectra were recorded using a J-810 spectropolarimeter (Jasco, Easton, MD, USA) in a 0.1 cm quartz cuvette. Far-UV CD spectra were collected over 190–260 nm. ITC measurements were carried out at 20 °C on an ITC (VP–ITC 200, MicroCal). 820 µM FZD6 TM5 and 165 µM FZD6 TM4 were dissolved in 0.5% DDM in water. 2 µl of TM5 peptide were injected into 260 µl TM4 during each titration. The ITC data were analyzed with the Origin 7.0 software.

TM4 peptide of FZD6 = assay: analytical size-exclusion chromatography of TM peptides; format: binding, human; conditions: TDW + 0.01% DDM; 500 µM each peptide; Superdex 30; 0.8 ml min^−1; room temperature; 215 nm; 2 h incubation
Experimental: Analytical SEC was performed on an ÄKTA Explorer with a Superdex 30 analytical column (GE Healthcare) equilibrated with TDW + 0.01% DDM. Peptides were eluted with a flow rate of 0.8 ml min^−1 at room temperature. Elution profile was monitored by UV absorbance at 215 nm. For the binding experiments, the peptides were incubated together in TDW + 0.01% DDM at room temperature for 2 h.

[1] = circular dichroism of synthetic TM peptides; format: physicochemical
Experimental: as §1
Supplementary Figure 5: Circular dichroism (CD) and isothermal titration calorimetry (ITC) experiments for structural analysis of synthetic peptides resembling TM1, 4, 5 and mutant TM5 and of peptide-peptide interactions, related to Figure 3. Synthetic peptides (for sequence see Supplementary Fig. 9) resembling TM1 (a), 4 (b), 5 (c) and mutant TM5 (d) were used for CD experiments in triple distilled water with increasing DDM concentrations (0% DDM – black, 0.01% DDM – blue, 0.1% DDM – green and 0.5% DDM – red). (c)TM5 is unstructured in TDW and begins to gain structure at 0.1% DDM. It forms a clear α-helical structure in 0.5% DDM. The triple mutated TM5 (d) forms an α-helix in a much lower DDM concentration (0.01% DDM). […]

V5-FZD6-mCherry = assay: dcFRAP of V5-FZD6-mCherry/CB1-GFP (negative control); format: cell-based, human; conditions: HEK293
Experimental: For dual color FRAP experiments, cells grown in four compartment 35 mm glass bottom dishes were washed three times with BE buffer[19] (150 mM NaCl, 2.5 mM KCl, 10 mM HEPES, 12 mM glucose, 0.5 mM CaCl2, and 0.5 mM MgCl2). Then, the cells were incubated at RT for 30 min with biotin-conjugated goat polyclonal anti-V5 antibody (Bethyl) diluted 1:100 in BE buffer supplemented with 2.5% bovine serum albumin. For antibody-mediated cross-linking, avidin was added and incubated for 15 min and washed two times with BE buffer before the experiments were performed. In Fig. 4, dcFRAP experiments are presented that employ chemical surface crosslinking to visualize assembly of FZD6 with DVL or heterotrimeric G proteins according to previously published protocols. Live cell imaging experiments were carried out using a Zeiss 710 laser scanning microscope. Images were acquired using a 40×, 1.2 NA C-Apochromat objective and the 488 nm and the 561 nm laser lines were used to excite GFP and mCherry fluorophores, respectively. Photobleaching was performed by 100% laser illumination of a 1.80 × 1.80 µm area placed over the cell plasma membrane. Fluorescence was measured pre- and post-bleach using low-intensity illumination for a total time period of 100 s. Average pixel intensity was measured using the ZEN2013 software, corrected for background fluctuations and bleaching artifacts and normalized to pre-bleached intensity. The recovered mobile fraction (F m) was calculated as follows: F m = (I P–I 0)/(I I–I 0), where I I is the initial intensity measured prior to bleaching, I 0 is the immediate fluorescence intensity post-bleaching and I P is intensity value post-bleaching. The mobile fraction was defined by the average of the fluorescence recovery assessed between time 85–101 s (including pre-bleach measurements). We excluded experiments in which the extracellularly tagged receptors were not sufficiently immobilized after the crosslinking procedure (cutoff at 40% crosslinking-induced reduction in mobile fraction). […]

[2] = test system: ERK1/2 phosphorylation in HEK293 cells; assay: P-ERK1/2 immunoblot, HEK293 cells expressing SNAP-FZD6 constructs; format: cell-based
Experimental: Fig. 6 Relationship between FZD6 dimerization and phosphorylation of ERK1/2. a Mouse lung epithelial (MLE-12) cells were stimulated with WNT-5A (300 ng ml^−1) for 0, 2.5, 5, 10, 20 min. Cell lysates were analyzed for P-ERK1/2 and β-actin by immunoblotting. Additional information in Supplementary Fig. 6. b Bar graph summarizes three independent experiments. Densitometry data were normalized to the unstimulated control. […] Additional information in Supplementary Fig. 6. SNAP-FZD6 wt- and SNAP-FZD6 dimer mutant-induced ERK1/2 phosphorylation in the absence e and presence f of the porcupine inhibitor C59 (5 µM, overnight) were probed by immunoblotting for the SNAP-tag, P-ERK1/2, total ERK1/2 and β-actin. g The bar graph summarizes densitometry data of P-ERK1/2 normalized to total ERK1/2 from 6 different experiments. P = 0.0005; F (2, 15) = 13.08. ***P < 0.001. Empty vector transfection was used as mock. h Increasing amounts of plasmid of either SNAP-FZD6 wt or SNAP-FZD6 dimer mutant in the presence of C59 show a dose-dependent increase in P-ERK1/2 only with the dimer mutant. Data from three independent experiments for the dimer mutant were fit to a linear least-squares model (slope = 0.40 ± 0.10; R ^2 = 0.5943) and this line is shown superimposed. […] This dissociation-dependent activation can be evoked by agonist (WNT^high) or mutation of the dimer interface (symbolized by red stars). WNT^low conditions can be achieved in the presence of C59, which reduces FZD6 wt signaling
MLE-12 or HEK293 cells (ATCC) were plated in a 24- or 48-well plate at a density of 100,000 or 50,000 cells/well, respectively. After 24 h, cells were transfected using Lipofectamine 2000 according to the manufacturer’s instructions. Cells were stimulated (24 h post-transfection) with 300 ng ml^−1 recombinant carrier-free WNT-5A (CF WNT-5A; R&D Systems). Stimulation was stopped by the addition of lysis buffer (1% NP-40, 150 mM NaCl, 50 mM Tris/HCl pH 8). Lysates were sonicated and analyzed by 7.5 or 10% Mini-PROTEAN TGX precast polyacrylamide gels (Bio-Rad) and transferred to PVDF membranes using the Trans-Blot Turbo system (Bio-Rad). After blocking with 5% milk or BSA in TBS-T, membranes were incubated with primary antibodies in blocking buffer: mouse anti-β-actin (1:30,000; Sigma #A5441), rabbit anti-FZD6 (1:1000; NovusBio #NBP1-00830), rabbit anti-Phospho-p44/42 MAPK (ERK1/2) (Thr202/Tyr204) (1:1000; Cell Signaling Technology #9101 L), rabbit anti-p44/42 MAPK (ERK1/2) (1:1000; Cell Signaling Technology #9102), rabbit anti-Phospho-C-RAF (Ser338) (1:1000; Cell Signaling Technology #56A6), rabbit anti-SNAP tag (1:1000, New England Biolabs #P9310S), and rabbit anti-HA (1:4000, abcam #ab9110) overnight at 4 °C. Proteins were detected with horseradish peroxidase-conjugated secondary antibodies (goat anti-rabbit and goat anti-mouse (Pierce)) and Clarity Western ECL Blotting Substrate (Bio-Rad). All uncropped immunoblots can be found in the Supplementary Information.

FZD6–FZD6 dimer = assay: dcFRAP of V5-FZD6-mCherry/FZD6-GFP (FZD6 dimerization); format: cell-based, human; conditions: HEK293, 85–101 s, mean ± s.e.m.
Experimental: For dual color FRAP experiments, cells grown in four compartment 35 mm glass bottom dishes were washed three times with BE buffer[19] (150 mM NaCl, 2.5 mM KCl, 10 mM HEPES, 12 mM glucose, 0.5 mM CaCl2, and 0.5 mM MgCl2). Then, the cells were incubated at RT for 30 min with biotin-conjugated goat polyclonal anti-V5 antibody (Bethyl) diluted 1:100 in BE buffer supplemented with 2.5% bovine serum albumin. For antibody-mediated cross-linking, avidin was added and incubated for 15 min and washed two times with BE buffer before the experiments were performed. In Fig. 4, dcFRAP experiments are presented that employ chemical surface crosslinking to visualize assembly of FZD6 with DVL or heterotrimeric G proteins according to previously published protocols. Live cell imaging experiments were carried out using a Zeiss 710 laser scanning microscope. Images were acquired using a 40×, 1.2 NA C-Apochromat objective and the 488 nm and the 561 nm laser lines were used to excite GFP and mCherry fluorophores, respectively. Photobleaching was performed by 100% laser illumination of a 1.80 × 1.80 µm area placed over the cell plasma membrane. Fluorescence was measured pre- and post-bleach using low-intensity illumination for a total time period of 100 s. Average pixel intensity was measured using the ZEN2013 software, corrected for background fluctuations and bleaching artifacts and normalized to pre-bleached intensity. The recovered mobile fraction (F m) was calculated as follows: F m = (I P–I 0)/(I I–I 0), where I I is the initial intensity measured prior to bleaching, I 0 is the immediate fluorescence intensity post-bleaching and I P is intensity value post-bleaching. The mobile fraction was defined by the average of the fluorescence recovery assessed between time 85–101 s (including pre-bleach measurements). We excluded experiments in which the extracellularly tagged receptors were not sufficiently immobilized after the crosslinking procedure (cutoff at 40% crosslinking-induced reduction in mobile fraction). Kinetic determination of mobile fractions of crosslinked V5-FZD6-mCherry and FZD6-GFP with WNT stimulation over time were performed in one cell culture well. Measurements for each time point were performed on separate cells.
Statistical and graphical analysis was performed using Graph Pad Prism 5 software. Data were analyzed by two-tailed t-test or one-way ANOVA with Fisher’s least significant difference post hoc analysis. Curve fitting of FRAP data was done with a two-phase association nonlinear function using the least square fit. Data for receptor titration in the presence of C59 and output to P-ERK1/2 in Fig. 6h was fit to a linear regression model. All experiments were repeated at least three times in independent experiments (not representing technical replicates). For single cell analysis (dcFRAP), the number of the individual ROIs obtained from several cells in at least three independent experiments is provided in the figure legends. Data from individual ROIs are summarized for data presentation providing the sum of independent observations. Significance levels are given as: *P < 0.05; **P < 0.01; ***P < 0.001. Data in FRAP curves and bar graphs (FRAP) are presented as mean ± s.e.m.

[3] = CD, triple distilled water with 0, 0.01, 0.1, 0.5% DDM

KKLDASRYFVLLPLCLCVFVGLSLLLAGIISKKK [TM5, synthetic peptide of FZD6 transmembrane helix 5]
ITC affinity (dissociation constant, K D) to TM4 (FZD6-TM4): micromolar affinity; also recorded: in the micromolar range
SEC elution volume in combination with TM4 (TM4 peptide of FZD6): eluted at a greater volume than TM4 and TM5 alone
DDM concentration at which peptide begins to gain structure [1, 3]: 0.1%
DDM concentration at which α-helix forms [1, 3]: 0.5%
secondary structure in detergent (CD) ([1]; DDM detergent solution, lipophilic environment): structured and α-helical
secondary structure in TDW (CD) ([1]; triple distilled water, 0% DDM, 190–260 nm): unstructured

B1: CB1-GFP: GFP-tagged cannabinoid CB1 receptor, negative control (protein)
chain: MKSILDGLADTTFRTITTDLLYVGSNDIQYEDIKGDMASKLGYFPQKFPLTSFRGSPFQEKMTAGDNSPLVPAGDTTNITEFYNKSLSSFKENEENIQCGENFMDMECFMILNPSQQLAIAVLSLTLGTFTVLENLLVLCVILHSRSLRCRPSYHFIGSLAVADLLGSVIFVYSFVDFHVFHRKDSPNVFLFKLGGVTASFTASVGSLFLTAIDRYISIHRPLAYKRIVTRPKAVVAFCLMWTIAIVIAVLPLLGWNCKKLQSVCSDIFPLIDETYLMFWIGVTSVLLLFIVYAYMYILWKAHSHAVRMIQRGTQKSIIIHTSEDGKVQVTRPDQARMDIRLAKTLVLILVVLIICWGPLLAIMVYDVFGKMNKLIKTVFAFCSMLCLLNSTVNPIIYALRSKDLRHAFRSMFPSCEGTAQPLDNSMGDSDCLHKHANNTASMHRAAESCIKSTVKIAKVTMSVSTDTSAEAL
modifications: left off: GFP, end not stated, kept
notes: GFP-tagged cannabinoid CB1 receptor, negative control
CL-induced reduction in mobile fraction of CB1-GFP (V5-FZD6-mCherry; antibody-treated, co-expressing V5-FZD6-mCherry): did not exhibit a reduction in the mobile fraction of CB1-GFP upon crosslinking
mobile fraction, CB1 experiment after CL (V5-FZD6-mCherry; with crosslinking, n=34): 77,12 ± 2,601%
mobile fraction, CB1 experiment before CL (V5-FZD6-mCherry; without crosslinking, n=29): 78,48 ± 2,373%

B2: FZD6 wt: wild-type FZD6 receptor construct (SNAP-tagged in ERK assays; GFP-tagged in b181) (protein)
chain: HSLFTCEPITVPRCMKMAYNMTFFPNLMGHYDQSIAAVEMEHFLPLANLECSPNIETFLCKAFVPTCIEQIHVVPPCRKLCEKVYSDCKKLIDTFGIRWPEELECDRLQYCDETVPVTFDPHTEFLGPQKKTEQVQRDIGFWCPRHLKTSGGQGYKFLGIDQCAPPCPNMYFKSDELEFAKSFIGTVSIFCLCATLFTFLTFLIDVRRFRYPERPIIYYSVCYSIVSLMYFIGFLLGDSTACNKADEKLELGDTVVLGSQNKACTVLFMLLYFFTMAGTVWWVILTITWFLAAGRKWSCEAIEQKAVWFHAVAWGTPGFLTVMLLAMNKVEGDNISGVCFVGLYDLDASRYFVLLPLCLCVFVGLSLLLAGIISLNHVRQVIQHDGRNQEKLKKFMIRIGVFSGLYLVPLVTLLGCYVYEQVNRITWEITWVSDHCRQYHIPCPYQAKAKARPELALFMIKYLMTLIVGISAVFWVGSKKTCTEWAGFFKRNRKRDPISESRRVLQESCEFFLKHNSKVKHKKKHYKPSSHKLKVISKSMGTSTGATANHGTSAVAITSHDYLGQETLTEIQTSPETSMREVKADGASTPRLREQDCGEPASPAASISRLSGEQVDGKGQAGSVSESARSEGRISPKSDITDTGLAQSNNLQVPSSSEPSSLKGSTSLLVHPVSGVRKEQGGGCHSDT
modifications: left off: V5 (on the crosslinked copy), N-terminal, kept | mCherry (on the crosslinked copy), C-terminal, kept | GFP (on the other, mobile copy), C-terminal, kept
P-ERK1/2 induction in presence of C59 ([2]; HEK293, C59 5 µM overnight): reduced to basal
effect of overexpression on basal P-ERK1/2 without C59 ([2]; serum-starved HEK293, no C59): increased basal P-ERK1/2
mobile fraction of FZD6-GFP before CL (FZD6–FZD6 dimer; basal, without biotinylated anti-V5/avidin crosslinking, N = 21 ROIs): 80,78 ± 2,053%
mobile fraction of FZD6-GFP after CL (FZD6–FZD6 dimer; with biotinylated anti-V5/avidin crosslinking, N = 31 ROIs): 70,69 ± 2,416%

From publication PMC5548745, “Agonist-induced dimer dissociation as a macromolecular step in G protein-coupled receptor signaling” (Nature Communications, 2017)
